Measurements taken from paper doi:10.1101/2022.02.23.481653 (bioRxiv, 2022).
Changes are numbered by the printed parent chain. Numbers in names are those of the source.

B1: SEPT2-msfGFP (wild type) (natural protein)
chain: MSKQQPTQFINPETPGYVGFANLPNQVHRKSVKKGFEFTLMVVGESGLGKSTLINSLFLTDLYPERVIPGAAEKIERTVQIEASTVEIEERGVKLRLTVVDTPGYGDAINCRDCFKTIISYIDEQFERYLHDESGLNRRHIIDNRVHCCFYFISPFGHGLKPLDVAFMKAIHNKVNIVPVIAKADTLTLKERERLKKRILDEIEEHNIKIYHLPDAESDEDEDFKEQTRLLKASIPFSVVGSNQLIEAKGKKVRGRLYPWGVVEVENPEHNDFLKLRTMLITHMQDLQEVTQDLHYENFRSERLKRGGRKVENEDMNKDQILLEKEAELRRMQEMIARMQAQMQMQMQGGDGDGGALGHHV
B2: SEPT2NCmut-msfGFP (SEPT2 F20D, V27D) (natural protein)
chain: B1 chain with F20D, V27D

Molecular target: the molecule itself
Experiment: native gel or EMSA

| Protein | stoichiometry N |
| --- | --- |
| B1 | 2 |
| B2 | 2 |
